Patent US20120283194, “Inhibitors of Atypical Protein Kinase C and Their Use in Treating Hedgehog Pathway-Dependent Cancers” (published 2012)

Legend:
Gli1 = Gli1 (Homo sapiens, UniProt P08151 P08151:1-1106); test: EMSA; Zn, Mg, poly(dI-dC)-type competitor, room temperature; binding reduced by PSI during translation and rescued by recombinant aPKC; over-phosphorylation disrupts; conditions: tags: V5/HIS, rabbit reticulocyte lysate (Promega)
Protocol: (§1) Electrophoretic mobility shift assay performed by incubation of 50 fmol double-stranded radiolabeled Gli1 oligos (5′ […] 3′ (SEQ IF NO:5)) in binding buffer ([…] pH 7.5, mM KCl, 2.5 mM MgCl2, 1 mM DTT, 10% glycerol, 25 uM poly(dO-dC), 5 uM ZnSO₄) with IVT Gli1:V5/HIS lysate for 10 min at room temperature. 2 pmol unlabeled Gli1 oligos or Gli1 mutant oligos (5′ […] 3′ (SEQ ID NO:6)) used as competition. Endogenous aPKC inhibited in reticulocyte lysate with PSI during translation reaction and rescue performed by adding recombinant HIS:aPKC for 15 min before addition of radiolabeled Gli1 oligos. Samples were resolved on 6% acrylamide gel and exposed to a phosphor screen (Molecular Dynamics) and imaged with GE Typhoon 9410.
(§2) We asked whether phosphorylated Gli1 affects the mobility of radiolabeled Gli1 target DNA in an electrophoretic mobility assay.

aPKC (HIS:aPKC) = target: T1, aPKC (HIS:aPKC) (UniProt P41743 P41743:1-596); test: EMSA; aPKC alone did not bind; conditions: tags: HIS, Abcam
T1 sequence: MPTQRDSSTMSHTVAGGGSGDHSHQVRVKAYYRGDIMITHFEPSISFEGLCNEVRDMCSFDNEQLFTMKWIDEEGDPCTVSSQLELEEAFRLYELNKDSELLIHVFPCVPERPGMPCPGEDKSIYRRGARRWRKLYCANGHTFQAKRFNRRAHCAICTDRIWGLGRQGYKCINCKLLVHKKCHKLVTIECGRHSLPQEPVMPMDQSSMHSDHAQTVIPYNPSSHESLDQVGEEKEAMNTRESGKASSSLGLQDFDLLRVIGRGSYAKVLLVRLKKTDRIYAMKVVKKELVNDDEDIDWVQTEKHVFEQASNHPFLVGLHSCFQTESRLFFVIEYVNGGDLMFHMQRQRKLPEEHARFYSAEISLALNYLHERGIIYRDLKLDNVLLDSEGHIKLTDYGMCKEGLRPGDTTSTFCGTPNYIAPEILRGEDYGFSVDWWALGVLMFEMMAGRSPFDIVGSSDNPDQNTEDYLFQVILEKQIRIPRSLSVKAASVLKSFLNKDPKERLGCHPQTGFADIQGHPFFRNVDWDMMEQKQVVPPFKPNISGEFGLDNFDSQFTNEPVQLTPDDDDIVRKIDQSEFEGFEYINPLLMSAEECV
Protocol: as §1, §2

Gli1, sequence (P08151 whole entry, one chain of several): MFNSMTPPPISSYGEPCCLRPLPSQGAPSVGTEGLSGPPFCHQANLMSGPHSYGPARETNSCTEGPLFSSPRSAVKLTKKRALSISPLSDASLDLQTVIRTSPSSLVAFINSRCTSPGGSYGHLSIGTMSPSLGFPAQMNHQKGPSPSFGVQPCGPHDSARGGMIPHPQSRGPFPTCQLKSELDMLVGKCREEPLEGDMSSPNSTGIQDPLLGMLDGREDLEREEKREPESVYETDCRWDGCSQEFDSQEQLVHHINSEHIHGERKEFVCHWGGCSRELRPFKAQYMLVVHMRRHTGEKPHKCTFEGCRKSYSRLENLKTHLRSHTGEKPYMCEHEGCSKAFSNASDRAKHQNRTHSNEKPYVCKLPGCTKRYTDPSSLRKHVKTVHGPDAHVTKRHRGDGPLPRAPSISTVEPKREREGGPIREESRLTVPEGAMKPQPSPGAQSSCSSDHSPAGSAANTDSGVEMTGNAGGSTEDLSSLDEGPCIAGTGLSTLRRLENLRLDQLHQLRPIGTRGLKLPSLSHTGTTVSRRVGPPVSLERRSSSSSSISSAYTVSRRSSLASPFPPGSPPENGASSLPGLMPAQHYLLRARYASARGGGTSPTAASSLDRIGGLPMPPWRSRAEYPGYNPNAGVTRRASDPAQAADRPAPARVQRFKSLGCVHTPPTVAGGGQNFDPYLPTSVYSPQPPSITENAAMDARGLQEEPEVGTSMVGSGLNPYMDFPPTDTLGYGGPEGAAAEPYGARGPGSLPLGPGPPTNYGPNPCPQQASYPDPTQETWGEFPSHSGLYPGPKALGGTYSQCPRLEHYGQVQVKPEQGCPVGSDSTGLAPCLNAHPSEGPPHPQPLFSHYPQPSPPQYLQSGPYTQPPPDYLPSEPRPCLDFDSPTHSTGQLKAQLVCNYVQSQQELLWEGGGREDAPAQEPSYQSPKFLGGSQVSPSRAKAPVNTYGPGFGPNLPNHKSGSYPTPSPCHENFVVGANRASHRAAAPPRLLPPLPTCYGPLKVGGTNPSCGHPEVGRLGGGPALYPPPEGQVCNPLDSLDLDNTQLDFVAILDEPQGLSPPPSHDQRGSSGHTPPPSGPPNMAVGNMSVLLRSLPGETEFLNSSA

B1: Gli1 target oligo (dsDNA)
DNA 1: AGCCCGGACCACCCACGAGAA
DNA 2: TTCTCGTGGGTGGTCCGGGCT
- binding result (Gli1): binds
- binding result (aPKC (HIS:aPKC)): no binding
